This is an account of results in patent publication US20100081620A1.

Broadly, the Ki is a dissociation constant, usually derived from enzyme kinetics or from competition with a known ligand. Low values mean tighter binding, high ones weaker binding.

One assay concerns the target MMP 2. Put plainly: enzyme inhibition, fluorescent peptide substrate.
The next assay has as its target MMP 1. Put plainly: enzyme inhibition, fluorescent peptide substrate.
In another assay the target is MMP 14. Briefly: enzyme inhibition, fluorescent peptide substrate.
For another assay, the target named is MMP 13. Put plainly: enzyme inhibition, fluorescent peptide substrate.
A further assay deals with MMP 3. Briefly: enzyme inhibition, fluorescent peptide substrate.
For the next assay, the target named is MMP 9. Put plainly: enzyme inhibition, fluorescent peptide substrate.
Assay [1] addresses T1, ADAM 8 catalytic domain (mouse) (mouse) (UniProt Q05910).
T1 sequence (looked up): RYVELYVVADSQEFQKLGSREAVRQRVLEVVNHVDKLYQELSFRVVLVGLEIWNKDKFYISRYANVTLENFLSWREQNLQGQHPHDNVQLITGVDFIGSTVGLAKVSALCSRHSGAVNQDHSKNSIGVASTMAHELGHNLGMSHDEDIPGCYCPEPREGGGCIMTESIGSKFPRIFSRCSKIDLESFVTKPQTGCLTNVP
Put plainly: cell-based or functional assay.

For assay [2], the target named is Human ADAM10 protease containing the catalytic/disintegrin domains (human) (UniProt O14672). Put plainly: cell-based or functional assay.
In assay [3] the target is TACE catalytic domain (human) (human) (UniProt P78536). Briefly: cell-based or functional assay.
The target of assay [4] is Human TACE protease containing the catalytic/disintegrin domains (human) (UniProt P78536). Briefly: cell-based or functional assay.
Chain of Human TACE protease containing the catalytic/disintegrin domains (human) (P78536 215-671 limits assumed): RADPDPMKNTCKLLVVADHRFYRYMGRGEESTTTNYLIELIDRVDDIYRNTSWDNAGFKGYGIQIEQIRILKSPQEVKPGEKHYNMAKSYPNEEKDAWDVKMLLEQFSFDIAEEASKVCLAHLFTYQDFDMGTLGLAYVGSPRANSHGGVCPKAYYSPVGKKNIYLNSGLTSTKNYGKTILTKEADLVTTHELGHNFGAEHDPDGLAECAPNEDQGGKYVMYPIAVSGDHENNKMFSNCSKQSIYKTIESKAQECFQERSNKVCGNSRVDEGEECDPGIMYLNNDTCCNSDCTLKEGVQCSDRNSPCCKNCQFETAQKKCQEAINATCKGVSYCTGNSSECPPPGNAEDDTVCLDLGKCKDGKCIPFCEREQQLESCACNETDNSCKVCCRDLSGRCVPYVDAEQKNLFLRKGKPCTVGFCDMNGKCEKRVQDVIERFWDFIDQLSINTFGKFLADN

Chain of Human ADAM10 protease containing the catalytic/disintegrin domains (human) (O14672 214-672 limits assumed): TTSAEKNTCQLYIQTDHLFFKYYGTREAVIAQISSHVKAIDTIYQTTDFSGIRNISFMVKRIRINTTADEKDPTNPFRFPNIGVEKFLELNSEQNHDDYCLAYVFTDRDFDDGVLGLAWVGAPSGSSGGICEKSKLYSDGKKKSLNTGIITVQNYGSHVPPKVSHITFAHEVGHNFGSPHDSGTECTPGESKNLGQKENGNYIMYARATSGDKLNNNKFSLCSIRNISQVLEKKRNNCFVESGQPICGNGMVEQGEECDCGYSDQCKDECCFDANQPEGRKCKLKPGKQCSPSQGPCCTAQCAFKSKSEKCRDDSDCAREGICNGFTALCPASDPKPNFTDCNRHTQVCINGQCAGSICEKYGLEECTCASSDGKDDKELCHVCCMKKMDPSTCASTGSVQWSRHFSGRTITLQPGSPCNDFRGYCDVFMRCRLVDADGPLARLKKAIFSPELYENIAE
Chain of TACE catalytic domain (human) (human) (P78536 215-477 limits assumed): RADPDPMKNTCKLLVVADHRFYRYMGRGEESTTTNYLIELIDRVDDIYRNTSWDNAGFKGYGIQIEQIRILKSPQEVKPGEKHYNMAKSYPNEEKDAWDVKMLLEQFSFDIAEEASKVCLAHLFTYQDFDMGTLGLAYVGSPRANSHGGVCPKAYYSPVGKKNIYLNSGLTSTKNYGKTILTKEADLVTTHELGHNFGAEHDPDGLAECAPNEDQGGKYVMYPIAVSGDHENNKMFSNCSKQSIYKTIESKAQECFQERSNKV
Chain of MMP 2 (P08253 110-660): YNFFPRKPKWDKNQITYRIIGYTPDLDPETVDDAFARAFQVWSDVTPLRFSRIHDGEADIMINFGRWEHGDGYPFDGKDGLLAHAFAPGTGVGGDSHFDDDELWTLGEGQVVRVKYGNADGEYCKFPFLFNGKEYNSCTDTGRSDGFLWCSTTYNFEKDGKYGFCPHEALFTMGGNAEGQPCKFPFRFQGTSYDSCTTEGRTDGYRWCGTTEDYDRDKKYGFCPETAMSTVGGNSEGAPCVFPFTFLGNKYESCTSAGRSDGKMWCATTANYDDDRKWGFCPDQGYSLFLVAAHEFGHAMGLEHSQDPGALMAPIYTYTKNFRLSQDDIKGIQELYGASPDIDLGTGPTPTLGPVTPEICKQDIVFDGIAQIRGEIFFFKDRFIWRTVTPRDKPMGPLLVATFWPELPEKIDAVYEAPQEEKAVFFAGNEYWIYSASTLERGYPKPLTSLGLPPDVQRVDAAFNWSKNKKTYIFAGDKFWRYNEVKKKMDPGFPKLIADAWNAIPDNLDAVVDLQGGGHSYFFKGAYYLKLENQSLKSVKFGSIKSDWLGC
Chain of MMP 9 (P14780 107-707): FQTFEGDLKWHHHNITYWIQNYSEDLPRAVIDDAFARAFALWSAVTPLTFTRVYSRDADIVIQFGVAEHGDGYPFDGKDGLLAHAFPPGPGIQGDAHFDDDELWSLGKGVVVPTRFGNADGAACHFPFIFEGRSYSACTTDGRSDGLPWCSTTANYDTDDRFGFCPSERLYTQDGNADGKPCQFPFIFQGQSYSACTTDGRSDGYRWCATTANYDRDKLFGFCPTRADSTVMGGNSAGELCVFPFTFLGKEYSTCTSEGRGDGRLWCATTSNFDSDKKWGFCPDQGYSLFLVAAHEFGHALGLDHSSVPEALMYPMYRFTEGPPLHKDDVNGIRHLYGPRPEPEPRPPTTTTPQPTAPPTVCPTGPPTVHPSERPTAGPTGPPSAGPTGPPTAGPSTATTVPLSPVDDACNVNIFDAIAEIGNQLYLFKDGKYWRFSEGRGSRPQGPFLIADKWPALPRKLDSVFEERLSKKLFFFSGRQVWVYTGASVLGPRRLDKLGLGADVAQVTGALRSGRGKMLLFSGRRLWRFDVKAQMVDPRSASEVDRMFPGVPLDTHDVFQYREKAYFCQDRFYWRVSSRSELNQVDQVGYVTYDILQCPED
Chain of MMP 3 (P08254 100-477): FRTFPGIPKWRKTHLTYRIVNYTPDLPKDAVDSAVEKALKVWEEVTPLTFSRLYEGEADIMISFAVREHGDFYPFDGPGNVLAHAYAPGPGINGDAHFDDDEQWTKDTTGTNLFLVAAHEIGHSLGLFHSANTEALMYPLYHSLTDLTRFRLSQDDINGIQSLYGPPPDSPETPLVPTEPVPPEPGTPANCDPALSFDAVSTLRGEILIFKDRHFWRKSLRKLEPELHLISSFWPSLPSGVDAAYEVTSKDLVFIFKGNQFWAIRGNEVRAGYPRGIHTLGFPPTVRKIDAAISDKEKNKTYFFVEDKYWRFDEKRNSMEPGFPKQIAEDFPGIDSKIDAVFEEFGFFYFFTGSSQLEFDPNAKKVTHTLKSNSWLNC
Chain of MMP 1 (P03956 100-469): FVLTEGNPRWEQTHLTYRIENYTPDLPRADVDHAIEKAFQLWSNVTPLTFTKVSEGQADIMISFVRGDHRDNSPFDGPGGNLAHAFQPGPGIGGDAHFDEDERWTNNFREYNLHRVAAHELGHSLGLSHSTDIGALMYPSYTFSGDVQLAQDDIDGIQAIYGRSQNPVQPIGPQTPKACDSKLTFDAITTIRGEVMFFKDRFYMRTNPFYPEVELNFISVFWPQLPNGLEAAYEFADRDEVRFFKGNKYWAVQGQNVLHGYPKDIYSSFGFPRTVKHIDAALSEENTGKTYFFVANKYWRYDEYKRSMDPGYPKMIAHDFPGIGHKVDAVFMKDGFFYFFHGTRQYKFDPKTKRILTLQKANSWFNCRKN

B1: wt ProADAM 10 23-213 (C-terminal His tag) (protein)
chain: NPLNKYIRHYEGLSYNVDSLHQKHQRAKRAVSHEDQFLLLDFHAHGRQFNLRMKRDTSLFSDEFKVETSNKVPDYDTSHIYTGHIYGEEGSFSHGSVIDGRFEGFIKTRGGTFYIEPAERYIKDRILPFHSVIYHEDDINYPHKYGPQGGCADHSVFERMRKYQMTGVEEGARAHPEKHAASSGPELLRKKHHHHHH
Regarding B1, the Ki with MMP 2, with MMP 1, in the assay with MMP 14, with MMP 13, in the assay with MMP 3 and with MMP 9 was greater than 2000 nM throughout.

B2: Pro ADAM 17 (mouse) (protein, UniProt Q9Z0F8 18-214, looked up, not shown: small tags and cut ends)
chain: PRPPEEAGSGSHPRLEKLDSLLSDYDILSLANIQQHSIRKRDLQSATHLETLLTFSALKRHFKLYLTSSTERFSQNLRVVVVDGKEESEYSVKWQNFFSGHVVGEPDSRVLAHIGDDDVTVRINTDGAEYNVEPLWRFVNDTKDKRMLVYKSEDIKDFSRLQSPKVCGYLNADSEELLPKGLIDREPSEEFVRRVKR
Turning to B2, the prodomain inhibition of enzyme activity (percent) in assay [1] worked out at 17%; in [2], 11%; in [3], 37%.

B3: Pro ADAM 8 (mouse) (protein, UniProt Q05910 18-186, looked up, not shown: small tags and cut ends)
chain: GPPLPHVKQYEVVWPRRLAASRSRRALPSHWGQYPESLSYALGTSGHVFTLHLRKNRDLLGSSYTETYSAANGSEVTEQLQEQDHCLYQGHVEGYEGSAASISTCAGLRGFFRVGSTVHLIEPLDADEEGQHAMYQAKHLQQKAGTCGVKDTNLNDLGPRALEIYRAQP
As for B3, the prodomain inhibition of enzyme activity (percent) amounted to 9% in assay [1], 13% in assay [4], 25% in assay [2] and 50% in [3].
